Results: publication PMC8998743, “Dimerization Activity of a Disordered N-Terminal Domain from Drosophila CLAMP Protein” (International Journal of Molecular Sciences, 2022)

Key:
[1] = target: the molecule itself; assay: SAXS; in solution, BM29 BioSAXS beamline (ESRF); molecular weight from extrapolated I0; CLAMP 1-153 at 2.3 mg/mL, CLAMP 1-113 at 1.0 and 7.0 mg/mL, CLAMP 87-153 at 2.5 and 10.0 mg/mL
[2] = target: the molecule itself; assay: cross-linking; thioredoxin-tagged proteins at 5 μM, increasing concentrations of glutaraldehyde, 10 min at room temperature, 20 mM HEPES pH 7.7, 150 mM NaCl, 20 mM imidazole, 1 mM β-mercaptoethanol; SDS-PAGE, silver staining
[3] = target: the molecule itself; assay: SEC; Superdex S200 size-exclusion chromatography of purified CLAMP derivatives

| Protein | stoichiometry N [1] | further results |
| --- | --- | --- |
| CLAMP^1–153 (purified, tag cleaved) (domain or fragment, D. melanogaster, UniProt Q9V9N4 1-153, looked up, source: E. coli BL21(DE3), purified (Ni-NTA, TEV cleavage, SOURCE15Q)) MEDLTKNIIFTNAINGQPATIQYQTADGTILKQPKIEGQKTEQQPTFYYTTNGNGGTVNLAQLATTDDNKTCYIAQPVGGYNYALVNGMPLNQGAALGIATVDAQGRIQIVNQNKPIAANTISNISFKCDVCSDMFPHLALLNAHKRMHTDGE | 2 | – |
| CLAMP^1–113 (purified, tag cleaved) (domain or fragment, D. melanogaster, UniProt Q9V9N4 1-113, looked up, source: E. coli BL21(DE3), purified (Ni-NTA, TEV cleavage, SOURCE15Q)) MEDLTKNIIFTNAINGQPATIQYQTADGTILKQPKIEGQKTEQQPTFYYTTNGNGGTVNLAQLATTDDNKTCYIAQPVGGYNYALVNGMPLNQGAALGIATVDAQGRIQIVNQ | 2 | – |
| thioredoxin-tagged CLAMP^1–127 (domain or fragment, D. melanogaster, UniProt Q9V9N4 1-127, looked up, Used in glutaraldehyde cross-linking with the thioredoxin tag on; source: E. coli BL21(DE3), purified) MEDLTKNIIFTNAINGQPATIQYQTADGTILKQPKIEGQKTEQQPTFYYTTNGNGGTVNLAQLATTDDNKTCYIAQPVGGYNYALVNGMPLNQGAALGIATVDAQGRIQIVNQNKPIAANTISNISF | – | binding result [2]: binds |
| CLAMP^1–127 (purified, tag cleaved) (domain or fragment, D. melanogaster, UniProt Q9V9N4 1-127, looked up, source: E. coli BL21(DE3), purified (Ni-NTA, TEV cleavage, SOURCE15Q)) MEDLTKNIIFTNAINGQPATIQYQTADGTILKQPKIEGQKTEQQPTFYYTTNGNGGTVNLAQLATTDDNKTCYIAQPVGGYNYALVNGMPLNQGAALGIATVDAQGRIQIVNQNKPIAANTISNISF | – | binding result [3]: binds |
